Assay: soluble on expression in E. coli; label from the status in PepcDB or PDB records

Question: Which “soluble on expression in E. coli” value does the source give for “GSHMLEFSEWYSDILEKAEIYDVRYPIKGCGVYLPYGFKIRRYTFEIIRNLLDESGHDEALFPMLIPEDLLAKEAEHIKGFEDEVYWVTHGGKTQLDVKLALRPTSETPIYYMMKLWVKVHTDLPIKIYQIVNTFRYETKHTRPLIRLREIMTFKEAHTAHSTKEEAENQVKEAISIYKKFFDTLGIPYLISKRPEWDKFPGAEYTMAFDTIFPDGRTMQIATVHNLGQNFSKTFEIIFETPTGDKDYAYQTCYGISDRVIASIIAIHGDEKGLILPPIVAPIQVVIVPLIFKGKEDIVMEKAKEIYEKLKGKFRVHIDDRDIRPGRKFNDWEIKGVPLRIEVGPKDIENKKITLFRRDTMEKFQVDETQLMEVVEKTLNNIMENIKNRAWEKFENFITILEDINPDEIKNILSEKRGVILVPFKEEIYNEELEEKVEATILGETEYKGNKYIAIAKTY” here?
Answer: soluble

Question: With “GSHMSLFDFFKNKGSAATATDRLKLILAKERTLNLPYMEEMRKEIIAVIQKYTKSSDIHFKTLDSNQSVETIEVEIILPR” as the sequence, how does the “soluble on expression in E. coli” value read?
Answer: soluble

Question: Which “soluble on expression in E. coli” value does the source give for “GSHMSLSNKLTLDKLDVKGKRVVMRVDFNVPMKNNQITNNQRIKAAVPSIKFCLDNGAKSVVLMSHLGRPDGVPMPDKYSLEPVAVELKSLLGKDVLFLKDCVGPEVEKACANPAAGSVILLENLRFHVEEEGKGKDASGNKVKAEPAKIEAFRASLSKLGDVYVNDAFGTAHRAHSSMVGVNLPQKAGGFLMKKELNYFAKALESPERPFLAILGGAKVADKIQLINNMLDKVNEMIIGGGMAFTFLKVLNNMEIGTSLFDEEGAKIVKDLMSKAEKNGVKITLPVDFVTADKFDENAKTGQATVASGIPAGWMGLDCGPESSKKYAEAVTRAKQIVWNGPVGVFEWEAFARGTKALMDEVVKATSRGCITIIGGGDTATCCAKWNTEDKVSHVSTGGGASLELLEGKVLPGVDALSNI” here?
Answer: soluble

Question: With “GSHMSSPVNEEENSQRISTLHHQTMPSDLTQDEFTQLSQSIAEFHTYQLGNGRCSSLLAQRIHAPPETVWSVVRRFDRPQIYKHFIKSCNVSEDFEMRVGCTRDVNVISGLPANTSRERLDLLDDDRRVTGFSITGGEHRLRNYKSVTTVHRFEKEEEEERIWTVVLESYVVDVPEGNSEEDTRLFADTVIRLNLQKLASITEAMNRN” as the sequence, how does the “soluble on expression in E. coli” value read?
Answer: soluble

Question: For “GSKPVSEKIMEIKLIKGPKGLGFSIAGGVGNQHWPGDNSIYVTKIIEGGAAHKDGKLQIGDKLLAVNNVALEEVTHEEAVTALKNTSDFVYLKVAKPTS”, which “soluble on expression in E. coli” value is on record?
Answer: soluble

Question: For “GSLTTISSILSLKREKPDNLAIILQIDFTKLKEEDSLIVVYNSLKALTIKFARLQFCFVDRNNYVLDYGSVLHKIDSLDSISNLKSKSSSTQFSPIWLKNTLYPENIHEHLGIVAVSNSNMEAKKSILFQDYRCFTSFGRRRPNELKIKVGYLNVDYSDKIDELVEASSWTFVLETLCYSFGLSFDEHDDDDEEDN”, which “soluble on expression in E. coli” value is on record?
Answer: soluble

Question: For “GSMETSMPEYYEVFGEFRGVLMDKRFTKYWEDVEMFLARPDDLVIATYPKSGTTWISEVVYMIYKEGDVEKCKEDAIFNRIPYLECRNEDLINGIKQLKEKESPRIVKTHLPPKLLPASFWEKNCKMIYLCRNAKDVAVSYYYFLLMITSYPNPKSFSEFVEKFMQGQVPYGSWYDHVKAWWEKSKNSRVLFMFYEDMKEDIRREVVKLIEFLERKPSAELVDRIIQHTSFQEMKNNPSTNYTMMPEEMMNQKVSPFMRKGIIGDWKNHFPEALRERFDEHYKQQMKDCTVKFRMEL”, which “soluble on expression in E. coli” value is on record?
Answer: soluble

Question: With “GSMKTIKVKNKTEGSKVAFRMLEEEITFGAKTLGLATGSTPLELYKEIRESHLDFSDMVSINLDEYVGLSADDKQSYAYFMKQNLFAAKPFKKSYLPNGLAADLAKETEYYDQILAQYPIDLQILGIGRNAHIGFNEPGTAFSSQTHLVDLTPSTIAANSRFFEKAEDVPKQAISMGLASIMSAKMILLMAFGEEKAEAVAAMVKGPVTEEIPASILQTHPKVILIVDEKAGAGI” as the sequence, how does the “soluble on expression in E. coli” value read?
Answer: soluble

Question: With “GSMPAIMTMLADHAARQLLDFSQKLDINLLDNVVNCLYHGEGAQQRMAQEVLTHLKEHPDAWTRVDTILEFSQNMNTKYYGLQILENVIKTRWKILPRNQCEGIKKYVVGLIIKTSSDPTCVEKEKVYIGKLNMILVQILKQEWPKHWPTFISDIVGASRTSESLCQNNMVILKLLSEEVFDFSSGQITQVKAKHLKDSMCNEFSQIFQLCQFVMENSQNAPLVHATLETLLRFLNWIPLGYIFETKLISTLIYKFLNVPMFRNVSLKCLTEIAGVSVSQYEEQFETLFTLTMMQLKQMLPLNTNIRLAYSNGKDDEQNFIQNLSLFLCTFLKEHGQLLEKRLNLREALMEALHYMLLVSEVEETEIFKICLEYWNHLAAELYRESPFSTSASPLLSGSQHFDIPPRRQLYLTVLSKVRLLMVSRMAKPEEVLVVENDQGEVVREFMKDTDSINLYKNMRETLVYLTHLDYVDTEIIMTKKLQNQVNGTEWSWKNLNTLCWAIGSISGAMHEEDEKRFLVTVIKDLLGLCEQKRGKDNKAIIASNIMYIVGQYPRFLRAHWKFLKTVVNKLFEFMHETHDGVQDMACDTFIKIAQKCRRHFVQVQVGEVMPFIDEILNNINTIICDLQPQQVHTFYEAVGYMIGAQTDQTVQEHLIEKYMLLPNQVWDSIIQQATKNVDILKDPETVKQLGSILKTNVRACKAVGHPFVIQLGRIYLDMLNVYKCLSENISAAIQANGEMVTKQPLIRSMRTVKRETLKLISGWVSRSNDPQMVAENFVPPLLDAVLIDYQRNVPAAREPEVLSTMAIIVNKLGGHITAEIPQIFDAVFECTLNMINKDFEEYPEHRTNFFLLLQAVNSHCFPAFLAIPPAQFKLVLDSIIWAFKHTMRNVADTGLQILFTLLQNVAQEEAAAQSFYQTYFCDILQHIFSVVTDTSHTAGLTMHASILAYMFNLVEEGKISTPLNPGNPVNNQMFIQDYVANLLKSAFPHLQDAQVKLFVTGLFSLNQDIPAFKEHLRDFLVQIKEFAGEDTSDLFLEERETALRQAQEEKHKLQMSVPGILNPHEIPEEMCD” as the sequence, how does the “soluble on expression in E. coli” value read?
Answer: soluble

Question: For “GSPGISGGGGGILDMADDDVLFEDVYELCEVIGKGAFSVVRRCINRETGQQFAVKIVDVAKFTSSPGLSTEDLKREASICHMLKHPHIVELLETYSSDGMLYMVFEFMDGADLCFEIVKRADAGFVYSEAVASHYMRQILEALRYCHDNNIIHRDVKPENVLLASKENSAPVKLGDFGVAIQLGESGLVAGGRVGTPHFMAPEVVKREPYGKPVDVWGCGVILFILLSGCLPFYGTKERLFEGIIKGKYKMNPRQWSHISESAKDLVRRMLMLDPAERITVYEALNHPWLKERDRYAYKIHLPETVEQLRKFNARRKLKGAVLAAVSSHKFNSFYGDPPEELPDFSEDPTS”, which “soluble on expression in E. coli” value is on record?
Answer: soluble

Question: For “GSSALLDTDEVGSELDDSDDDYLISEGEEDGPDENLMLCLYDKVTRTKARWKCSLKDGVVTINRNDYTFQKAQVEAEWV”, which “soluble on expression in E. coli” value is on record?
Answer: soluble

Question: Which “soluble on expression in E. coli” value does the source give for “GSSCGNDESDPDSTVTIAMATVEKQPQYDAPYLVLDNGEKLWVVQHIVPYRDLKAGERIFGNYSFLEAGESGFAYNIRLNDYTLVPVQKIIGLNPDNMDSIGNMKVQIKDMWPSDDYLNVRFMLNFPSPQKPILNLVVNEMIPWTKDGYAHLELRYNNNGSQGRLVPGMVSFKLDDYSPENSELKGIKVLVNPVDGEEKTYIFSYPLTGEDVPGFNPLDLAELK” here?
Answer: soluble

Question: With “GSSEEESFFVQVHDVSPEQPRTVIKAPRVSTAQDVIQQTLCKAKYSLSILSNPNPSDYVLLEEVVKDTTNKKTTTPKSSQRVLLDQECVFQAQSKWKGAGKFILKLKEQVQASREDK” as the sequence, how does the “soluble on expression in E. coli” value read?
Answer: soluble

Question: Which “soluble on expression in E. coli” value does the source give for “GSSGSSGMQLEIQVALNFIISYLYNKLPRRRVNIFGEELERLLKKKYEGHWYPEKPYKGSGFRCIHIGEKVDPVIEQASKESGLDIDDVRGNLPQDLSVWIDPFEVSYQIGEKGPVKVLYVDDNSGPSSG” here?
Answer: soluble

Question: With “GSTDSLPGKFEDMYKLTSELLGEGAYAKVQGAVSLQNGKEYAVKIIEKQAGHSRSRVFREVETLYQCQGNKNILELIEFFEDDTRFYLVFEKLQGGSILAHIQKQKHFNEREASRVVRDVAAALDFLHTKGIAHRDLKPENILCESPEKVSPVKICDFDLGSGMKLNNSCTPITTPELTTPCGSAEYMAPEVVEVFTDQATFYDKRCDLWSLGVVLYIMLSGYPPFVGHCGADCGWDRGEVCRVCQNKLFESIQEGKYEFPDKDWAHISSEAKDLISKLLVRDAKQRLSAAQVLQHPWVQGQAPEKG” as the sequence, how does the “soluble on expression in E. coli” value read?
Answer: soluble

Question: For “GVTYLLAKRKILYFEAVESKIFVYTEKDVYETTWKLYELEEKFKDSSFFRCSKSMILNIEWIEKIAPGFHGKFEASLFNREKVIISRQYAKILKQKLNLGGKGK”, which “soluble on expression in E. coli” value is on record?
Answer: not soluble

Question: With “GVVNVVVPQYVNCPDVCHWESAIMIYLMGELVERGLQDKVVFVTIGVNPYYETIEDGKRYMESVAGDYLDKGVKWIWVLDDVEKQEELWNMFGIAVSLYCVKNDGSIIDELTYDDYLKLEESGECSFVGVNHTAGFIIVDGDGVFRYFMSPTEDGWKRGQRQVAETILQYILKLVEERK” as the sequence, how does the “soluble on expression in E. coli” value read?
Answer: not soluble

Question: For “GYIDTGLYQNKEDILNSPRRLGSTQTKLGDIGYTDVNGDGKIDGEDQVRIGKPTMPHFTYAFDFSLGYEGFTLSGLLYGTGERYMTFGNRYQSGEGKYLYYENQLNYWRPDNTGADFPRISISSGVNGNNNKAGSTFWMRNASYLRLKDLQLSYDFKYKYLKKCDWLQTCRVNLSGSNLFTISGVSKFFDPETSSTSGDGYPVQRVYSIGVTIGF”, which “soluble on expression in E. coli” value is on record?
Answer: not soluble

Question: For “HATMEPLNCFVDLQSDSCLIRTGSQFQTGDRNAAARVAGLKPEQVTLETTFLGGGFGRRACPASDFVIEAVQVAKTVGKPVMVIRTREDDMRAG”, which “soluble on expression in E. coli” value is on record?
Answer: not soluble

Question: For “HELLSREEVESILSENQLLLQVTPTAPPKTPLSVCFYQVSLEIDRPQSPLVSQSAFEEAATLYNLLPKVDSWICEQLLVDHAQAIHQKGLALAIPLSEAALLKEDFRQSLLTLVQQTLLPPQSLYWMIDESTLLQYPFAIGNFLAKLQQPGCKLIVKEFGHNLNDFELLAEHHIDYLKFNSELIAHIHINQMDEVLISIINGTAQRANIATLAGPVELPPTLSKLIDIGVDLADGTMIGRTEPLSEVLNSSYFAIK”, which “soluble on expression in E. coli” value is on record?
Answer: soluble

Question: Which “soluble on expression in E. coli” value does the source give for “HFRRSLRHIFRRRSAGELPAAHTAAAPGTPGEAAETPARPGLAKKFLPWSLAREPPPEALKEAVLRYSLADEASMDSGARWQRGRLALRRAPGPDGPDRVLELFDPPKSSRPKLQAACSSIQEVRRCTRLEMPDNLYTFVLKVKDRTDIIFEVGDEQQLNSWMAELSECTGRGLESTEAEMHIPSALEPSTSSSPRGSTDSLNQGASPGGLLDPACQKTDHFLSCYPWFHGPISRVKAAQLVQLQGPDAHGVFLVRQSETRRGEYVLTFNFQGIAKHLRLSLTERGQCRVQHLHFPSVVDMLHHFQRSPIPLECGAACDVRLSSYVVVVSQPPGSCNTVLFPFSLPHWDSESLPHWGSELGLPHLSSSGCPRGLSPEGLPGRSSPPEQIFHLVPSPEELANSLQHLEHEPVNRARDSDYEMDSSSRSHLRAIDNQYTPL” here?
Answer: soluble

Question: With “HGDGPGNAVQEIMIPASKAGLVIGKGGETIKQLQERAGVKMVMIQDGPQNTGADKPLRITGDPYKVQQAKEMVLELIRDQG” as the sequence, how does the “soluble on expression in E. coli” value read?
Answer: soluble

Reference: the DeepSol protein solubility set
